Starred links: 1 amine or outer side, 2 acyl side, 3 side chain; linkers in the order of their positions; H or OH if unused. Positions of bridges follow the written chain, without caps; N, C: chain ends. Non-standard residues stand in square brackets, D forms with d. Residues, ends and D or L forms follow the SMILES beside them. *: point of attachment. X1 = CCOCc1nc2c(NC(=O)OCCSSC(C)CCC(=O)*)nc3ccccc3c2n1CC(C)(C)O; 1Nal = N[C@@H](Cc1cccc2ccccc12)C(=O)O; TBMB = c1c(C[*:1])cc(C[*:3])cc1C[*:2]; Tle = CC(C)(C)[C@H](N)C(=O)O; βAla = NCCC(=O)O; Sar = CNCC(=O)O
Legend:
Plasma stability, rat = type: in vitro ADME; conditions: pH 7.4; rat plasma, 2 μM, 37° C.; read-out: T1/2 (rat)
Plasma stability, mouse = type: in vitro ADME; conditions: pH 7.4; mouse plasma, 2 μM, 37° C.; read-out: T1/2 (mouse)
human TLR8 = target: T1, human TLR8 (Homo sapiens, UniProt Q9NR97); assay: Human TLR8 receptor activation, HEK293 reporter cell line; type: cell-based; conditions: HEK293 reporter cells, 16 hours
T1 construct: host or cells: HEK293 reporter cell line
T1 sequence (Q9NR97 27-1041): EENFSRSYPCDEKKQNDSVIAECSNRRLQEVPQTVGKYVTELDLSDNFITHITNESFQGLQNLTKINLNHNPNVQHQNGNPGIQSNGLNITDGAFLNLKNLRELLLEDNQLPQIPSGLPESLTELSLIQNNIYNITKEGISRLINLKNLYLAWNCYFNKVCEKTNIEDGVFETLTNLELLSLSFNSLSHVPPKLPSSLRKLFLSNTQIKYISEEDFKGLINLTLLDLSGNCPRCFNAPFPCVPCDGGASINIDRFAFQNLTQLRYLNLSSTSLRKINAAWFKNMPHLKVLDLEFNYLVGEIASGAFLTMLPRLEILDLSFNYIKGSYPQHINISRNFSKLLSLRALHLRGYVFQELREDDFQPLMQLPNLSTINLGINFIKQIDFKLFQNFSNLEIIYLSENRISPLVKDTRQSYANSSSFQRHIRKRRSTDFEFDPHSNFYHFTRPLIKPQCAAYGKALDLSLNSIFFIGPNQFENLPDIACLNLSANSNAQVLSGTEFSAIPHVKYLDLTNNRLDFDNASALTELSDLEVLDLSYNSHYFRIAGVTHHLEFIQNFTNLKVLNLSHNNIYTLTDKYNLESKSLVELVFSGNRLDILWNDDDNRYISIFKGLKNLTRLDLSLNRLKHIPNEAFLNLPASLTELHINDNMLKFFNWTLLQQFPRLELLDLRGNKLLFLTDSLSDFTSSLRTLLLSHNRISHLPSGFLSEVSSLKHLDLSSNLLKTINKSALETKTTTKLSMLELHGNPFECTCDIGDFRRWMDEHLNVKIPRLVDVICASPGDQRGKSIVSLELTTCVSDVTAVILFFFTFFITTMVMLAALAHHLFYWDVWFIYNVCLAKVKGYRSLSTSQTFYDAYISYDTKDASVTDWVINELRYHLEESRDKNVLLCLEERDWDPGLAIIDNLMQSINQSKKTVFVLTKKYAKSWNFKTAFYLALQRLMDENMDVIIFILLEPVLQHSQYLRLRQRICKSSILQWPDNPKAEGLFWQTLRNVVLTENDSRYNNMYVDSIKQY
Procedure: (§1) Compounds were tested for their activity to activate human TLR7 and TLR8 receptors using HEK293 reporter cell lines engineered to express respective receptors in accordance to manufacturer's instructions (InvivoGen). […] Incubation was for 16 hours at 37° C. and […]. Absorption at 655 nm was read on […]. Data was fitted using PRISM.

human TLR7 = target: T2, human TLR7 (Homo sapiens, UniProt Q9NYK1); assay: Human TLR7 receptor activation, HEK293 reporter cell line; type: cell-based; conditions: HEK293 reporter cells, 16 hours
T2 construct: host or cells: HEK293 reporter cell line
T2 sequence (Q9NYK1 27-1049): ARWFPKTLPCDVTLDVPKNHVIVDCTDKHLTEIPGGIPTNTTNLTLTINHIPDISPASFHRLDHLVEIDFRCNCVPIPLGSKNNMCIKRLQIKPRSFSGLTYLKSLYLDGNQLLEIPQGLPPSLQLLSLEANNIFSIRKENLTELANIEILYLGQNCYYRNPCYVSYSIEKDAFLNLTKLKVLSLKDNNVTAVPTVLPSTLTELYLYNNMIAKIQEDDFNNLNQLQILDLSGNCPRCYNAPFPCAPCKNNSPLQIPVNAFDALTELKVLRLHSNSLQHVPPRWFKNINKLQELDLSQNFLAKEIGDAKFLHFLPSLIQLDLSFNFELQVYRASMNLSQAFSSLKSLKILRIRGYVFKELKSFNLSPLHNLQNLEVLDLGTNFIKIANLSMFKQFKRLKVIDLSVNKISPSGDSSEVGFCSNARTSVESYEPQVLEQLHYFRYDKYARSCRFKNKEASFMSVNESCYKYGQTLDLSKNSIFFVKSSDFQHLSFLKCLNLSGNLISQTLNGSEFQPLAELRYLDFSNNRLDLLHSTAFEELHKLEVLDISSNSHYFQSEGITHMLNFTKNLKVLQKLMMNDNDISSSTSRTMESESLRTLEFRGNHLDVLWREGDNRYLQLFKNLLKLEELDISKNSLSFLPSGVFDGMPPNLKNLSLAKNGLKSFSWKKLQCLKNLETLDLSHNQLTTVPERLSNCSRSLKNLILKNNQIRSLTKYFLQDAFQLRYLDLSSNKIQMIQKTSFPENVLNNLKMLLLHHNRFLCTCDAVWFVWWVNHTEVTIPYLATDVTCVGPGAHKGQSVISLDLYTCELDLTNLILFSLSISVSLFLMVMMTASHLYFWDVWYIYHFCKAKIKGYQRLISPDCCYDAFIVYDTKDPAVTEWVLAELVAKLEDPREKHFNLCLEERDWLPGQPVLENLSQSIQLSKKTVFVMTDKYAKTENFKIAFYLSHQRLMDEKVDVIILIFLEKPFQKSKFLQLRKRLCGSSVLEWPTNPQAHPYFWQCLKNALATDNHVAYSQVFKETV
Procedure: as §1

CCOCc1nc2c(NC(=O)OCCSSC(C)CCC(=O)NCCC(=O)N(C)CC(=O)N(C)CC(=O)N(C)CC(=O)N(C)CC(=O)N(C)CC(=O)N(C)CC(=O)N(C)CC(=O)N(C)CC(=O)N(C)CC(=O)N(C)CC(=O)N[C@@H](C)C(=O)N[C@H]3CSCc4cc5cc(c4)CSC[C@H](NC(=O)[C@@H](C)NC(=O)[C@H](Cc4cccc6ccccc46)NC(=O)[C@H](CCC(=O)O)NC(=O)[C@H](CC(N)=O)NC(=O)[C@@H](C)NC3=O)C(=O)N[C@@H](CCC(=O)O)C(=O)N[C@@H](CC(=O)O)C(=O)N[C@@H](Cc3ccccc3)C(=O)N[C@@H](Cc3ccc(O)cc3)C(=O)N[C@@H](CC(=O)O)C(=O)N[C@@H](C(C)(C)C)C(=O)N[C@H](C(N)=O)CSC5)nc3ccccc3c2n1CC(C)(C)O (stereo partly shown) [I-8] ({X1-βAla}-[Sar][Sar][Sar][Sar][Sar][Sar][Sar][Sar][Sar][Sar]AC[dA]NE[1Nal][dA]CEDFYD[Tle]C-NH2; linker 12-18-25 via TBMB)
half-life at 2 μM (Plasma stability, rat): < 2 h
half-life at 2 μM (Plasma stability, mouse): < 2 h
hTLR8 activation potency versus naked payload resiquimod (human TLR8): considerably reduced potency or inactivity
hTLR7 activation potency versus naked payload resiquimod (human TLR7): considerably reduced potency or inactivity

Source: US20200283482A1, “BICYCLIC PEPTIDE LIGAND PRR-A CONJUGATES AND USES THEREOF” (BicycleRD Limited, priority 2017, published 2020)
